This passage reports switch fluorescence ratio results from the supplement of paper PMC10126150.

This data set relates to ATP. The experiment in a line: switch fluorescence ratio, 500 uM ATP over buffer (Cy3 cluster intensity, sum of 5 cycles each) (fold (ratio)); higher = stronger signal-on switching upon ATP binding; sequences stand for … in TCGTCGGCAGCGTCAGATGTGTATAAGAGACAGTTTTTTTTTTTTTTTTTTTTTTTTT…TC. To be noted: aptamer strand: ATP DNA aptamer (quencher-CACCTGGGGGAGTATTGCGGAGGAAGG + anchor), 100 nM annealed; ATP concentration: 500 uM. The method, boiled down:
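Clusters carrying Cy3-labelled switching strands on a modified Illumina MiSeq flow-cell were annealed to 100 nM quencher-labelled ATP aptamer and imaged in selection buffer. They were imaged again after 15 min with 500 uM ATP at 22 °C, over five buffer/ATP cycles with NaOH stripping and re-annealing in between. For each cluster, the fluorescence ratio is the summed Cy3 intensity of the target cycles divided by that of the buffer cycles, averaged per switch-domain sequence. Clusters outside 100-1000 RFU were left out.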

± gives the standard deviation of the averaged measurements.
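Further: ATP exposure 15 min at 22 °C before imaging.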

GCTCATGAGC: the switch fluorescence ratio was found to be 1.007 ± 0.0093.

Turning to GCTCCCTGAG, the switch fluorescence ratio came out at 1.056 ± 0.0076.

In the case of GCTCCTGAGG, the switch fluorescence ratio came to 1.073 ± 0.0081.

Consider GCTCCTGTGC, for which the switch fluorescence ratio amounted to 1.1992 ± 0.00049.

As for GCTCGATGTG, the switch fluorescence ratio amounted to 1 ± 0.015.

Regarding GCTCGGTCGG, the switch fluorescence ratio is 1.02 ± 0.037.

With GCTCGTAAGT, the switch fluorescence ratio worked out at 1.01 ± 0.0049.

With GCTCTAATGC, the switch fluorescence ratio stood at 1.17 ± 0.096.

On to GCTCTAGTGT, for which the switch fluorescence ratio worked out at 0.996 ± 0.013.

On to GCTCTATCAC, for which the switch fluorescence ratio amounted to 1.04 ± 0.035.

Take GCTCTATTAT: the switch fluorescence ratio was 1.11 ± 0.16.

With GCTCTCGGTA, the switch fluorescence ratio amounted to 1.03 ± 0.039.

In the case of GCTCTGAGTG, the switch fluorescence ratio was determined as 1.013 ± 0.0075.

On to GCTCTGTCGG, for which the switch fluorescence ratio was 1.02 ± 0.012.

Consider GCTCTTAGTT, for which the switch fluorescence ratio is 0.992 ± 0.018.

GCTCTTTGGG: the switch fluorescence ratio is 1.06 ± 0.13.

Regarding GCTGAGGGTG, the switch fluorescence ratio was 1.01 ± 0.028.

Turning to GCTGATATCC, the switch fluorescence ratio amounted to 1.01 ± 0.048.

GCTGATGTTT: the switch fluorescence ratio worked out at 1.023 ± 0.0095.

On to GCTGATTGGA, for which the switch fluorescence ratio is 0.979 ± 0.055.

For GCTGCATGTA, the switch fluorescence ratio came out at 1.02 ± 0.028.

As to GCTGCGCCGT, the switch fluorescence ratio is 1.004 ± 0.0092.

Take GCTGCGGGGA: the switch fluorescence ratio is 0.9929 ± 0.0071.

Regarding GCTGCGGGTC, the switch fluorescence ratio was determined as 1.02 ± 0.033.

For GCTGCTAAGG, the switch fluorescence ratio was 0.987 ± 0.056.

With GCTGCTATTG, the switch fluorescence ratio is 0.994 ± 0.02.

In the case of GCTGCTTTTT, the switch fluorescence ratio worked out at 1.01 ± 0.041.

Take GCTGGCAGTG: the switch fluorescence ratio was determined as 0.972 ± 0.029.

Regarding GCTGGGAAGG, the switch fluorescence ratio is 0.978 ± 0.013.

Regarding GCTGGGAGGG, the switch fluorescence ratio was 0.979 ± 0.022.

In the case of GCTGGGATAG, the switch fluorescence ratio amounted to 1.01 ± 0.019.

As to GCTGGGCACT, the switch fluorescence ratio turned out to be 1.01 ± 0.035.

For GCTGGGGGCA, the switch fluorescence ratio is 1.05 ± 0.098.

For the sequence GCTGGGGGTT, the switch fluorescence ratio is 0.996 ± 0.059.

For the sequence GCTGGGGTCG, the switch fluorescence ratio amounted to 0.9631 ± 0.0029.

Consider GCTGGGGTTA, for which the switch fluorescence ratio came to 0.996 ± 0.019.

As to GCTGGGGTTG, the switch fluorescence ratio turned out to be 0.9839 ± 0.003.

With GCTGGGTTTC, the switch fluorescence ratio is 0.996 ± 0.02.

Take GCTGGGTTTG: the switch fluorescence ratio is 0.9866 ± 0.0088.

Consider GCTGGTAGGG, for which the switch fluorescence ratio was found to be 1.01 ± 0.026.

In the case of GCTGGTGGGG, the switch fluorescence ratio worked out at 0.964 ± 0.05.

With GCTGGTGGGT, the switch fluorescence ratio was determined as 0.988 ± 0.012.

As to GCTGGTTTAG, the switch fluorescence ratio turned out to be 1.006 ± 0.0039.

Consider GCTGGTTTTG, for which the switch fluorescence ratio was 0.9716 ± 0.004.

As for GCTGTAAAGC, the switch fluorescence ratio is 1.03 ± 0.092.

As to GCTGTAAGTA, the switch fluorescence ratio was found to be 0.988 ± 0.017.

Regarding GCTGTACGAT, the switch fluorescence ratio stood at 1.16 ± 0.012.

With GCTGTAGTTT, the switch fluorescence ratio is 0.973 ± 0.015.

In the case of GCTGTATATT, the switch fluorescence ratio was found to be 0.993 ± 0.0017.

On to GCTGTCATTC, for which the switch fluorescence ratio is 1.01 ± 0.014.

Turning to GCTGTCGGTG, the switch fluorescence ratio worked out at 0.972 ± 0.0079.

With GCTGTCGTTA, the switch fluorescence ratio is 1.015 ± 0.01.

Turning to GCTGTGGCT, the switch fluorescence ratio stood at 0.972 ± 0.01.

With GCTGTGGTAC, the switch fluorescence ratio was 1.188 ± 0.0086.

On to GCTGTGTCCA, for which the switch fluorescence ratio is 0.993 ± 0.01.

Regarding GCTGTGTGGG, the switch fluorescence ratio is 1.03 ± 0.032.

For the sequence GCTGTTAGAG, the switch fluorescence ratio was determined as 1.02 ± 0.022.

With GCTGTTAGCA, the switch fluorescence ratio was found to be 1.02 ± 0.034.

On to GCTGTTCATG, for which the switch fluorescence ratio came to 0.993 ± 0.015.

In the case of GCTGTTGAAT, the switch fluorescence ratio was found to be 1.02 ± 0.041.

As for GCTGTTGGAA, the switch fluorescence ratio turned out to be 0.985 ± 0.012.

In the case of GCTGTTGTTC, the switch fluorescence ratio turned out to be 0.979 ± 0.041.

On to GCTGTTTACG, for which the switch fluorescence ratio worked out at 1.03 ± 0.031.

As for GCTGTTTACT, the switch fluorescence ratio is 1 ± 0.012.

Turning to GCTGTTTCCC, the switch fluorescence ratio worked out at 0.989 ± 0.024.

Take GCTTAATCAG: the switch fluorescence ratio amounted to 0.988 ± 0.022.
